Experimental data as given in patent US11278600B2, “Human alpha-galactosidase variants” (Codexis, Inc., priority 2014, dated 2022).

B1: 169 (protein)
chain: LDNGLARTPTMGWLHWERFMCNLDCQEEPDSCISEKLFMEMAELMVSEGWKDAGYEYLCIDDCWMAPQRDSEGRLQADPQRFPHGIRQLANYVHSKGLKLGIYADVGNKTCAGFPGSFGYYDIDAQTFADWGVDLLKFDGCYCDSLENLADGYKHMSLALNRTGRSIVYSCEWPLYMWPFQKPNYTEIRQYCNHWRNFADIDDSWKSIKSILDWTSFNQERIVDVAGPGGWNDPDMLVIGNFGLSWNQQVTQMALWAIMAAPLFMSNDLRHISPQAKALLQDKDVIAINQDPLGKQGYQLRQGDNFEVWERPLSGLAWAVAMINRQEIGGPRSYTIAVASLGKGVACNPACFITQLLPVKRKLGFYEWTSRLRTHINPTGTVLLQLENTMQMSKDLLL
modifications: Synthetic Polypeptide sequence of Variant No. 169 of mature Human GLA
B2: 171 (protein)
chain: LDNGLARTPTMGWLHWERFMCNLDCQEEPDSCISEKLFMEMAELMVSEGWKDAGYEYLCIDDCWMAPQRDSEGRLQADPQRFPHGIRQLANYVHSKGLKLGIYADVGNKTCAGFPGSFGYYDIDAQTFADWGVDLLKFDGCYCDSLENLADGYKHMSLALNRTGRSIVYSCEWPLYMWPFQKPNYTEIRQYCNHWRNFADIDDSWKSIKSILDWTSFNQERIVDVAGPGGWNDPDMLVIGNFGLSWNQQVTQMALWAIMAAPLFMSNDLRHISPQAKALLQDKDVIAINQDPLGKQGYQLRQGDNFEVWERPLSGLAWAVAMINRQEIGGPRSYTIAVASLGKGVACNPACFITQLLPVKRKLGFYEWTSRLRSHINPTGTVLLQLENTMQMGKDLLL
modifications: Synthetic Polypeptide sequence of Variant No. 171 of mature Human GLA
B3: 175 (protein)
chain: LDNGLARTPTMGWLHWERFMCNLDCQEEPDSCISEKLFMEMAELMVREGWKDAGYEYLCIDDCWMAPQRDSEGRLQADPQRFPHGIRQLANYVHSKGLKLGIYADVGNKTCAGFPGSFGYYDIDAQTFADWGVDLLKFDGCYCDSLENLADGYKHMSLALNRTGRSIVYSCEWPLYMWPFQKPNYTEIRQYCNHWRNFADIDDSWKSIKSILDWTSFNQERIVDVAGPGGWNDPDMLVIGNFGLSWNQQVTQMALWAIMAAPLFMSNDLRHISPQAKALLQDKDVIAINQDPLGKQGYQLRQGDNFEVWERPLSGLAWAVAMINRQEIGGPRSYTIAVASLGKGVACNPACFITQLLPVKRKLGFYEWTSRLRSHINPTGTVLLQLENTMQMSKDLLL
modifications: Synthetic Polypeptide sequence of Variant No. 175 of mature Human GLA
B4: 172 (protein)
chain: LDNGLARTPTMGWLHWERFMCNLDCQEEPDSCISEKLFMEMAELMVSEGWKDAGYEYLCIDDCWMAPQRDSEGRLQADPQRFPHGIRQLANYVHSKGLKLGIYADVGNKTCAGFPGSFGYYDIDAQTFADWGVDLLKFDGCYCDSLENLADGYKHMSLALNRTGRSIVYSCEWPLYMWPFQKPNYTEIRQYCNHWRNFADIDDSWKSIKSILDWTSFNQERIVDVAGPGGWNDPDMLVIGNFGLSWNQQVTQMALWAIMAAPLFMSNDLRHISPQAKALLQDKDVIAINQDPLGKQGYQLRQGDNFEVWERPLSGLAWAVAMINRQEIGGPRSYTIAVASLGKGVACNPACFITQLLPVKRKLGFYEWTSRLRSHINPTGTVLLQLENTMQMHKDLLL
modifications: Synthetic Polypeptide sequence of Variant No. 172 of mature Human GLA
B5: 176 (protein)
chain: LDNGLARTPTMGWLHWERFMCNLDCQEEPDSCISEKLFMEMAELMVTEGWKDAGYEYLCIDDCWMAPQRDSEGRLQADPQRFPHGIRQLANYVHSKGLKLGIYADVGNKTCAGFPGSFGYYDIDAQTFADWGVDLLKFDGCYCDSLENLADGYKHMSLALNRTGRSIVYSCEWPLYMWPFQKPNYTEIRQYCNHWRNFADIDDSWKSIKSILDWTSFNQERIVDVAGPGGWNDPDMLVIGNFGLSWNQQVTQMALWAIMAAPLFMSNDLRHISPQAKALLQDKDVIAINQDPLGKQGYQLRQGDNFEVWERPLSGLAWAVAMINRQEIGGPRSYTIAVASLGKGVACNPACFITQLLPVKRKLGFYEWTSRLRSHINPTGTVLLQLENTMQMSKDLLL
modifications: Synthetic Polypeptide sequence of Variant No. 176 of mature Human GLA
B6: 173 (protein)
chain: LDNGLARTPTMGWLHWERFMCNLDCQEEPDSCISEKLFMEMAELMVSEGWKDAGYEYLCIDDCWMAPQRDSEGRLQADPQRFPHGIRQLANYVHSKGLKLGIYADVGNKTCAGFPGSFGYYDIDAQTFADWGVDLLKFDGCYCDSLENLADGYKHMSLALNRTGRSIVYSCEWPLYMWPFQKPNYTEIRQYCNHWRNFADIDDSWKSIKSILDWTSFNQERIVDVAGPGGWNDPDMLVIGNFGLSWNQQVTQMALWAIMAAPLFMSNDLRHISPQAKALLQDKDVIAINQDPLGKQGYQLRQGDNFEVWERPLSGLAWAVAMINRQEIGGPRSYTIAVASLGKGVACNPACFITQLLPVKRKLGFYEWTSRLRSHINPTGTVLLQLENTMQMPKDLLL
modifications: Synthetic Polypeptide sequence of Variant No. 173 of mature Human GLA
B7: 170 (protein)
chain: LDNGLARTPTMGWLHWERFMCNLDCQEEPDSCISEKLFMEMAELMVSEGWKDAGYEYLCIDDCWMAPQRDSEGRLQADPQRFPHGIRQLANYVHSKGLKLGIYADVGNKTCAGFPGSFGYYDIDAQTFADWGVDLLKFDGCYCDSLENLADGYKHMSLALNRTGRSIVYSCEWPLYMWPFQKPNYTEIRQYCNHWRNFADIDDSWKSIKSILDWTSFNQERIVDVAGPGGWNDPDMLVIGNFGLSWNQQVTQMALWAIMAAPLFMSNDLRHISPQAKALLQDKDVIAINQDPLGKQGYQLRQGDNFEVWERPLSGLAWAVAMINRQEIGGPRSYTIAVASLGKGVACNPACFITQLLPVKRKLGFYEWTSRLRSHINPTGTVLLQLENTMQMEKDLLL
modifications: Synthetic Polypeptide sequence of Variant No. 170 of mature Human GLA
B8: 174 (protein)
chain: LDNGLARTPTMGWLHWERFMCNLDCQEEPDSCISEKLFMEMAELMVIEGWKDAGYEYLCIDDCWMAPQRDSEGRLQADPQRFPHGIRQLANYVHSKGLKLGIYADVGNKTCAGFPGSFGYYDIDAQTFADWGVDLLKFDGCYCDSLENLADGYKHMSLALNRTGRSIVYSCEWPLYMWPFQKPNYTEIRQYCNHWRNFADIDDSWKSIKSILDWTSFNQERIVDVAGPGGWNDPDMLVIGNFGLSWNQQVTQMALWAIMAAPLFMSNDLRHISPQAKALLQDKDVIAINQDPLGKQGYQLRQGDNFEVWERPLSGLAWAVAMINRQEIGGPRSYTIAVASLGKGVACNPACFITQLLPVKRKLGFYEWTSRLRSHINPTGTVLLQLENTMQMSKDLLL
modifications: Synthetic Polypeptide sequence of Variant No. 174 of mature Human GLA

Columns and labels:
Type in all cases: biochemical
[1] = HTP-analysis of yeast culture supernatants, no challenge (MUGal hydrolysis); conditions: activity of the variant/activity of WT GLA (SEQ ID NO: 5), yeast supernatant
Summary of the method: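 GLA variants were expressed in INVSc1 yeast grown in SD-Ura broth with glucose at 30° C., and culture supernatants were collected after 66-84 h. Supernatant was mixed with McIlvaine buffer pH 4.8 and MUGal (2 mM stock) in 50 mM citrate, 200 mM KCl, pH 4.6, incubated at 37° C. for 30-180 minutes, then quenched with sodium carbonate.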

[2] = HTP-analysis of supernatants pretreated with acid (MUGal hydrolysis); conditions: challenge at pH 4.2; activity of the variant/activity of WT GLA (SEQ ID NO: 5); yeast supernatant
Summary of the method: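 Fluorescence of MUGal hydrolysis (Ex. 355 nm, Em. 448 nm) is read after sodium carbonate quench. The enzyme source is INVSc1 yeast culture supernatant, first exposed to pH 3.3-4.3 McIlvaine buffer at 37° C. for 1-3 h, then reacted at pH 4.8 for 30-180 minutes.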

[3] = HTP-analysis of supernatants pretreated with base (MUGal hydrolysis); conditions: challenge at pH 7.1; activity of the variant/activity of WT GLA (SEQ ID NO: 5); yeast supernatant
Summary of the method: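 Supernatants from INVSc1 yeast expressing GLA variants (SD-Ura, 66-84 h, 30° C) were mixed with McIlvaine buffer pH 7.0-8.2 or 200 mM sodium bicarbonate pH 9.1-9.7 and held 1-18 h at 37° C. Residual activity was then measured on MUGal at pH 4.8/4.3, 37° C, 30-180 min, by fluorescence (Ex 355/Em 448 nm).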

| Molecule | Relative Activity of GLA Variants After No Challenge (NC) [1] | Relative Activity of GLA Variants After Challenge at pH 4.2 [2] | Relative Activity of GLA Variants After Challenge at pH 7.1 [3] |
| --- | --- | --- | --- |
| B1 | ++ (++ = >1.5 to 2.5 relative activity over WT GLA (SEQ ID NO: 5)) | ++ (++ = >1.5 to 2.5 relative activity over WT GLA (SEQ ID NO: 5)) | ++ (++ = >1.5 to 2.5 relative activity over WT GLA (SEQ ID NO: 5)) |
| B2 | ++ (++ = >1.5 to 2.5 relative activity over WT GLA (SEQ ID NO: 5)) | ++ (++ = >1.5 to 2.5 relative activity over WT GLA (SEQ ID NO: 5)) | ++ (++ = >1.5 to 2.5 relative activity over WT GLA (SEQ ID NO: 5)) |
| B3 | + (+ = 0.5 to 1.5 relative activity over WT GLA (SEQ ID NO: 5)) | ++ (++ = >1.5 to 2.5 relative activity over WT GLA (SEQ ID NO: 5)) | + (+ = 0.5 to 1.5 relative activity over WT GLA (SEQ ID NO: 5)) |
| B4 | + (+ = 0.5 to 1.5 relative activity over WT GLA (SEQ ID NO: 5)) | + (+ = 0.5 to 1.5 relative activity over WT GLA (SEQ ID NO: 5)) | + (+ = 0.5 to 1.5 relative activity over WT GLA (SEQ ID NO: 5)) |
| B5 | + (+ = 0.5 to 1.5 relative activity over WT GLA (SEQ ID NO: 5)) | + (+ = 0.5 to 1.5 relative activity over WT GLA (SEQ ID NO: 5)) | + (+ = 0.5 to 1.5 relative activity over WT GLA (SEQ ID NO: 5)) |
| B6 | ++ (++ = >1.5 to 2.5 relative activity over WT GLA (SEQ ID NO: 5)) | ++ (++ = >1.5 to 2.5 relative activity over WT GLA (SEQ ID NO: 5)) | ++ (++ = >1.5 to 2.5 relative activity over WT GLA (SEQ ID NO: 5)) |
| B7 | ++ (++ = >1.5 to 2.5 relative activity over WT GLA (SEQ ID NO: 5)) | ++ (++ = >1.5 to 2.5 relative activity over WT GLA (SEQ ID NO: 5)) | ++ (++ = >1.5 to 2.5 relative activity over WT GLA (SEQ ID NO: 5)) |
| B8 | + (+ = 0.5 to 1.5 relative activity over WT GLA (SEQ ID NO: 5)) | + (+ = 0.5 to 1.5 relative activity over WT GLA (SEQ ID NO: 5)) | + (+ = 0.5 to 1.5 relative activity over WT GLA (SEQ ID NO: 5)) |
